Measurements: article PMC3777832

Molecular target: xenopus Lgr4 ectodomain (residues 24-455) (xenopus)
Assay: SEC + other: dynamic light scattering

“xenopus Lgr4 ectodomain (residues 24-455) (domain or fragment)” gave a stoichiometry N of 2.
